Two molecules from patent US4374928A, “Novel reductase” (Hoffmann-La Roche Inc., priority 1981, dated 1983) can be followed below.

In one assay the target is T1, peptide MetSO reductase (Escherichia coli, UniProt P0A744).
T1 construct: made in house; host or cells: E. coli Z19 cells (endogenous enzyme, not recombinant; ammonium sulfate, DE-52, Ultrogel AcA-44, DEAE-Sephadex)
The experiment in a line: Inhibition of the reduction of MetSO-L12 by excess free MetSO. The format is biochemical, E. coli. Conditions: 1×10^-4 M MetSO, about 60 times the concentration of MetSO-L12; read-out: inhibition of the enzymatic activity of peptide MetSO reductase. The method, then:
The assay for the reduction of MetSO-L12 to L12 is based on the ability of L12-transacetylase to specifically acetylate the amino terminal serine of Met-L12 to form acetyl-Met-L12, i.e. L7. A two-step incubation was used. […] After a 60 min incubation at 37°, the reaction mixtures were placed on ice and to each reaction mixture were added 2 μmol of sodium arsenite, 1.2 μg partially purified L12-transacetylase (see below) and [^3 H] acetyl-CoA (935 pmoles, 237 cpm/pmol) and the volume brought to 50 μl. The second incubation (acetylation reaction) was for 5 min at 37°, after which the reaction mixtures were diluted with 3 ml of cold buffer A and filtered through a nitrocellulose filter. The filters were washed with 10 ml of this same buffer, dissolved in scintillation fluid and the radioactivity determined. Under these conditions L12 and acetyl-L12 are quantitatively retained by the nitrocellulose filter. The results are reported as pmoles of acetyl-L12 formed under these conditions.

The subject of another assay is Met-L12. The experiment in a line: L12-transacetylase assay: acetylation of Met-L12. The format is biochemical, E. coli. Here is the method:
The fractions containing the enzyme activity were pooled (750 mg), concentrated and applied to a hydroxyapatite column (2×15 cm) equilibrated with a buffer containing 25 mM KPO4, pH 6.9, 1 mM β-mercaptoethanol and 10% glycerol. The column was eluted with a gradient from 25 mM to 250 mM KPO4, pH 6.9, containing 1 mM β-mercaptoethanol and 10% glycerol and the fractions containing enzymatic avtivity were pooled and concentrated (72 mg). This procedure yielded a 225 fold purification of the enzyme. Under standard conditions of assay as set forth by Brot and Weissbach [Biochem. Biophys. Res. Commun. 49, 673 (1972)] this fraction acetylated 46 nmols of Met-L12 per mg protein in 5 min. […] These properties are essential in order to use the enzymatic acetylation of Met-L12 as an assay for MetSO-L12 reduction. It was seen that at all concentrations of Met-L12, only one-third of the protein is acetylated.

T1 sequence (P0A744 2-212): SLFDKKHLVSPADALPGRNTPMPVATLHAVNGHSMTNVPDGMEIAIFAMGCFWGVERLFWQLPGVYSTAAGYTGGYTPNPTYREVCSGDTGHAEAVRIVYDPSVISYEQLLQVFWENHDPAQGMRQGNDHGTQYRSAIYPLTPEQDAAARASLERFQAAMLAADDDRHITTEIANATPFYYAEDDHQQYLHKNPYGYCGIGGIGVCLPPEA

`C[S+]([O-])CC[C@H](N)C(=O)O` (stereo partly shown) [MetSO, methionine sulfoxide]: on peptide MetSO reductase, the inhibition at 100 µM was less than 20%.

B1: L12-transacetylase: Partially purified E. coli Q13 enzyme that acetylates the amino terminal serine of Met-L12 to form acetyl-Met-L12 (L7) (protein, UniProt P13857 1-179, looked up)
Ribosomal-protein-serine …: MTETIKVSESLELHAVAENHVKPLYQLICKNKTWLQQSLNWPQFVQSEEDTRKTVQGNVMLHQRGYAKMFMIFKEDELIGVISFNRIEPLNKTAEIGYWLDESHQGQGIISQALQALIHHYAQSGELRRFVIKCRVDNPQSNQVALRNGFILEGCLKQAEFLNDAYDDVNLYARIIDSQ
modifications: partially purified
For B1, the “MetSO-L12 as substrate for acetylation” value with Met-L12 is on record as “not a substrate”. For the same molecule, in the assay on Met-L12 (at all concentrations of Met-L12), the “fraction of Met-L12 acetylated” value is reported as “one-third”. In the assay on Met-L12 (in 5 min, standard conditions of assay, hydroxyapatite fraction), this molecule registered a Met-L12 acetylated of 46 nmols per mg protein.
